We go through eight molecules from patent US20200377594A1 (MorphoSys, published 2020).

Substitutions are numbered along the chain they refer to.

Test [1] has as its target T1, recombinant cynomolgus CD3e (22-49)-Fc2(K105-K330) (cynomolgus monkey).
T1 construct: also called cyCD3e(22-49)_Fc2(K105-K330); cyCD3 epsilon 22-49/Fc
Put plainly: ELISA, 1 nM antigen coated, IgG titrated, anti-human F(ab')2-AP detection. In general terms: ELISA stands for enzyme-linked immunosorbent assay.

For test [2], the target named is T2, recombinant human CD3e (22-49)-Fc2 (K105-K330) (human).
T2 construct: also called hCD3e(22-49)_Fc2(K105-K330); hCD3 epsilon 22-49/Fc
Put plainly: ELISA, 5 nM antigen coated, IgG titrated, anti-human F(ab')2-AP detection.

Test [3] deals with Human CD3e (22-118) Flag_chLys_avi (human). Briefly: SPR (Biacore T200), IgG captured on MabSelect SuRe, hCD3e analyte 4.1-999 nM, 1:1 fit. (In general: SPR reads the build-up and loss of mass on a sensor chip optically.)
Chain of Human CD3e (22-118) Flag_chLys_avi (human) (chain, as listed by the source limits assumed): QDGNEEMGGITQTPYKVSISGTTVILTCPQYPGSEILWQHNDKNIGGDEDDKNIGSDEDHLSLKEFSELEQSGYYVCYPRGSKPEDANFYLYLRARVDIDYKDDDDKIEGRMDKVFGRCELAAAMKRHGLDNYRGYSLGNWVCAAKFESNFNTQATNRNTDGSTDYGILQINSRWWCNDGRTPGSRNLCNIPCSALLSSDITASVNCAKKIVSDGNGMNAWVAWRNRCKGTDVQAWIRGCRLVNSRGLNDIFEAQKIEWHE
Test [4] concerns the target T3, cynomolgus CD3 expressed on cynomolgus lymphocytes/PBMCs (cynomolgus monkey, UniProt Q95LI5 22-198).
T3 construct: also called cynomolgus CD3 epsilon
Briefly: flow cytometry on cynomolgus PBMCs (lymphocyte gate), detection with anti-human F(ab')2-PE. For orientation: In flow cytometry, cells or beads pass a laser one at a time.

Test [5] deals with T4, human CD3 expressed on cells (Jurkat cells; human lymphocytes/PBMCs) (human, UniProt P07766 23-207).
T4 construct: on the cells it stands in the CD3/TCR complex; also called human CD3 epsilon; CD3 positive Jurkat cells
T4 sequence (P07766 23-207): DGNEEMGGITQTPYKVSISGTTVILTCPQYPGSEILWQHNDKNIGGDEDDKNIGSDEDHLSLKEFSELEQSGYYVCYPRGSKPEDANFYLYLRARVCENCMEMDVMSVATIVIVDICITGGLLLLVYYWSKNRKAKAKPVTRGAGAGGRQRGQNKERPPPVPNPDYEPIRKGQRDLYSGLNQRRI
Briefly: flow cytometry on CD3 positive Jurkat cells, IgG titrated, anti-human F(ab')2-PE detection.

The target in test [6] is Human CD3e (22-118) Flag_chLys_avi (human). Put plainly: SPR (Biacore T200), IgG captured on MabSelect SuRe, hCD3e analyte 4.1-999 nM, 1:1 fit; comment: slightly heterogeneous binding.
For test [7] the target is unchanged. Put plainly: SPR (Biacore T200), IgG captured on MabSelect SuRe, hCD3e analyte 4.1-999 nM, 1:1 fit; comment: heterogeneous binding.
Test [8] has the same target. Briefly: SPR (Biacore T200), IgG captured on MabSelect SuRe, hCD3e analyte, 1:1 fit; comment: only conc. 37-333 nM used for evaluation.
The target is the same in test [9]. Briefly: SPR (Biacore T200), IgG captured on MabSelect SuRe, hCD3e analyte, 1:1 fit; comment: weak binding signals, only 333 nM & 999 nM evaluated.

T3 sequence (Q95LI5 22-198): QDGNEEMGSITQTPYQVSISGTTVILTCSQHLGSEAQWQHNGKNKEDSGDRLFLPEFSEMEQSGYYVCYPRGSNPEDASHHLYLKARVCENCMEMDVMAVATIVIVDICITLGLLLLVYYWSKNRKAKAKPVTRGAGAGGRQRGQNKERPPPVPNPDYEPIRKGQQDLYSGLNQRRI

B1: SP34 (m/h chimeric) IgG (antibody, V domains shown)
VH: EVQLVESGGGLVQPKGSLKLSCAASGFTFNTYAMNWVRQAPGKGLEWVARIRSKYNNYATYYADSVKDRFTISRDDSQSILYLQMNNLKTEDTAMYYCVRHGNFGNSYVSWFAYWGQGTLVTVSS
VL: QAVVTQESALTTSPGETVTLTCRSSTGAVTTSNYANWVQEKPDHLFTGLIGGTNKRAPGVPARFSGSLIGDKAALTITGAQTEDEAIYFCALWYSNLWVFGGGTKLTVLG
notes: Murine SP34 variable domains tested as mouse/human chimeric IgG; also called SP34 IgG (m/h chimera)
Regarding B1, the EC50 in test [1] came to 0.15 nM. The EC50 in test [2] came out at 0.39 nM. In test [3], the Kd amounted to 1.7 nM, the koff stood at 0.000835 s⁻¹ and the kon was 487000 M⁻¹ s⁻¹. In addition, the “EC50 (read off the curve)” value in test [4] was roughly 3 nM. The molecule further came in with an EC50 in test [5] of 1.4 nM.

B2: mAb#München (antibody, human IgG1, lambda, V domains shown)
VH: EVQLVESGGGLVKPGGSLRLSCAASGFTFNTYAMNWVRQAPGKGLEWVGRIRSKYNNYATYYADSVKDRFTISRDDSKNTLYLQMNSLKTEDTAVYYCTTHGNFGNSYVSWFAYWGQGTLVTVSS
VL: QTVVTQEPSLTVSPGGTVTLTCRSSTGAVTTSNYANWVQQKPGQAPRGLIGGTKFLAPGTPARFSGSLLGGKAALTLLGAQPEDEAEYYCALWYSNLWVFGGGTKLTVLG
notes: also called Munchen
Take B2: the EC50 worked out at 1.43 nM in test [1], 0.6 nM in test [2] and 6.6 nM in test [5]. Moreover, in test [4], the concentration for a half-maximal effect (EC50 (read off the curve)) is roughly 20 nM. Further, the Kd in test [6] was determined as 78 nM. In test [6], this molecule showed a koff of 0.00658 s⁻¹. Moreover, in [6], the kon came out at 84000 M⁻¹ s⁻¹.

B3: mAb#Bremen (antibody, human IgG1, lambda, V domains shown)
VH: B2 VH
VL: B2 VL with L78S, A80V
As for B3, the EC50 in test [1] amounted to 0.8 nM. Moreover, in [2], the EC50 is 1.1 nM. Besides, the “EC50 (read off the curve)” value in [4] was roughly 20 nM. Also, the EC50 in test [5] was 6.3 nM. Moreover, in test [7], binding was characterised by a dissociation constant (Kd) of 74 nM, the koff came to 0.00479 s⁻¹ and the kon was 65000 M⁻¹ s⁻¹.

B4: mAb#Nürnberg (antibody, human IgG1, lambda)
heavy: not shown
light: QTVVTQEPSLTVSPGGTVTLTCRSSTGAVTTSNYANWVQQKPGQAPRGLIGGTNKRAPGTPARFSGSLLGGKAALTLSGVQPEDEAEYYCALWYSNLWVFGGGTKLTVLGQPKAAPSVTLFPPSSEELQANKATLVCLISDFYPGAVTVAWKADSSPVKAGVETTTPSKQSNNKYAASSYLSLTPEQWKSHRSYSCQVTHEGSTVEKTVAPTECS
Turning to B4, the values for the EC50 in test [1], in test [2] and in test [5] were 0.21 nM, 0.34 nM and 1 nM, respectively. In test [8], the Kd was determined as 48 nM. This molecule displayed a koff in [8] of 0.00387 s⁻¹. This molecule returned a kon in test [8] of 80000 M⁻¹ s⁻¹.

B5: mAb#Köln (antibody, human IgG1, lambda)
heavy: not shown
light: B4 light with Q1E, T2L
Take B5: the EC50 in [1] is 0.2 nM. Besides, the EC50 in test [2] is 0.31 nM. In [6], the Kd came to 51 nM, the koff is 0.00386 s⁻¹ and the association rate constant (kon) stood at 76200 M⁻¹ s⁻¹. Besides, a half-maximal effect in [5] (EC50) was put at 1.8 nM.

B6: mAb#Gladbach (antibody, human IgG1, lambda, V domains shown)
VH: B2 VH with E1Q, V37I, G49S, D76N, S77A, T80S, K89R, T90A, T99V, T100R
VL: B2 VL with L78S, A80V
Take B6: in test [1], the EC50 turned out to be 0.21 nM. The EC50 in [2] was found to be 0.38 nM. Further, in [4], the “EC50 (read off the curve)” value was roughly 6 nM. For the same molecule, in test [6], the Kd was 54 nM, the koff stood at 0.00385 s⁻¹ and the kon was 71800 M⁻¹ s⁻¹. Moreover, the 50% effective concentration (EC50) in test [5] came to 1.4 nM.

B7: mAb#Freiburg (antibody, human IgG1, lambda, V domains shown)
VH: B2 VH
VL: B2 VL with K54N, F55K, L56R
For the molecule B7, the EC50 in test [1] turned out to be 1.26 nM. Also, in test [2], the EC50 worked out at 0.91 nM. In test [4], the “EC50 (read off the curve)” value was roughly 10 nM. The same molecule had an EC50 in test [5] of 10.7 nM. In [7], binding was put at a Kd of 130 nM, the koff was 0.00467 s⁻¹ and the kon was 35200 M⁻¹ s⁻¹.

B8: mAb#Mainz (antibody, human IgG1, lambda, V domains shown)
VH: B2 VH with E1Q, V37I, G49S, D76N, S77A, T80S, K89R, T90A, T99V, T100R
VL: B2 VL with T2A, K54N, F55K, L56R, G59W, L77I, L78T, P82A, E87D
For B8, the figures for the EC50 in test [1], in test [2] and in [5] were 1.53 nM, 1.21 nM and 9.4 nM, respectively. The molecule also gave a Kd in [9] of 600 nM. For the same molecule, in test [9], the koff is 0.00847 s⁻¹. Moreover, the kon in [9] stood at 14200 M⁻¹ s⁻¹.

As usually defined, the EC50 is the concentration giving half of the maximal effect. By Kd is commonly meant a measure of binding affinity in units of concentration. A high value points to lower affinity. As a reminder, the koff is the rate constant with which the complex falls apart. Higher therefore signals fast dissociation. Broadly, the kon is a measure of how fast the partners come together. As a reminder, the EC50 (read off the curve) is the concentration giving half of the maximal effect. Lower therefore signals greater potency.
